# Earlier results as cited in patent US9307769B2, “Method for increasing plant yield, and yield improving compositions” (Plant Health Care, Inc., priority 2011, dated 2016).
# Conditions: HR-eliciting fragments, Table 1
row,Substance,pI
1,"HrpNEa-1: HR-eliciting fragment, E. amylovora, amino acid residues 43-70 (GLGGGNQNDTVNQLAGLLTGMMMMMSMM; UniProt Q01099 43-70, looked up, fragment)",3.09
2,"HrpNEa-2: HR-eliciting fragment, E. amylovora, amino acid residues 140-176 (QNDDSTSGTDSTSDSSDPMQQLLKMFSEIMQSLFGDG; UniProt Q01099 140-176, looked up, fragment)",3.17
3,"HrpNEch-1: HR-eliciting fragment, E. chrysanthemi, amino acid residues 78-118 (QLGQSFGNGAQGASNLLSVPKSGGDALSKMFDKALDDLLGH; UniProt Q47278 78-118, looked up, fragment)",5.25
4,"HrpNEch-2: HR-eliciting fragment, E. chrysanthemi, amino acid residues 256-295 (DGWSSPKTDDKSWAKALSKPDDDGMTGASMDKFRQAMGMI; UniProt Q47278 256-295, looked up, fragment)",4.62
5,"HrpWPss-1: HR-eliciting fragment, P. syringae, amino acid residues 52-96 (LAATMFVMAPVAHDIQQRVHEHPLELSNADKLQSSLKVVIEPLQR; UniProt Q60236 52-96, looked up, fragment)",4.32

# Same assay, conditions: building block domains for fusion proteins, Table 2
row,Substance,pI
1,"(NC): building block domain, source HrpNEa140-180 (QNDDSTSGTDSTSDSSDPMQQLLKMFSEIMQSLFGDGQDGT; UniProt Q01099 140-180, looked up, fragment)",5.01
2,"(NN): building block domain, source HrpNEa40-80 (SALGLGGGNQNDTVNQLAGLLTGMMMMMSMMGGGGLMGGGL; UniProt Q01099 40-80, looked up, fragment)",6.78
